{"source": "paper PMC12694644", "origin": "cited, not measured here", "target": "IL-23 p19 (Homo sapiens) (UniProt Q9NPF7)", "sequence (Q9NPF7 20-189)": "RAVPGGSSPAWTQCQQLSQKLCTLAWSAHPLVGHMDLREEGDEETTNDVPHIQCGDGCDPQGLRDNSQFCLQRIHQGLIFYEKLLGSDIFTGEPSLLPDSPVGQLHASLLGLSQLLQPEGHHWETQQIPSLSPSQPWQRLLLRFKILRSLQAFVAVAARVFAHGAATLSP"}
{"substance": "Guselkumab", "values": [{"measurement": "Kd", "result": 3.3, "unit": "pM"}]}
